# Measurements: FireProtDB (doi:10.1016/j.jmb.2005.06.006)
# Where “and” joins values, the source holds several entries; their conditions need not be identical. Identical values can stand only once.
# B1: Tryptophan synthase alpha chain wild type, P0A877 (protein)
# chain: MERYESLFAQLKERKEGAFVPFVTLGDPGIEQSLKIIDTLIEAGADALELGIPFSDPLADGPTIQNATLRAFAAGVTPAQCFEMLALIRQKHPTIPIGLLMYANLVFNKGIDEFYAQCEKVGVDSVLVADVPVEESAPFRQAALRHNVAPIFICPPNADDDLLRQIASYGRGYTYLLSRAGVTGAENRAALPLNHLVAKLKEYNAAPPLQGFGISAPDQVKAAIDAGAAGAISGSAIVKIIEQHINEPEKMLAALKVFVQPMKAATRS
# Conditions: Escherichia coli (strain K12); pH 7.8; 25 °C; Urea; CD; Potassium phosphate 10 mM; transition: 3; whole UniProt chain shown
protein,measurement,value
B1,denaturant m value,2.29 kcal/mol/M and 1.2 kcal/mol/M
same,unfolding free energy,6.13 kcal/mol and 4.72 kcal/mol
